Test [1] concerns the target MCC 88-103 peptide tethered to full-length I-E^k on M12 cells (mouse) (UniProt P04224). The test can be described thus: cell coupling (CATS) with MCC M12 cells, flow cytometry. A general note: In flow cytometry, cells or beads pass a laser one at a time.
The target of test [2] is T102S altered peptide ligand of MCC tethered to full-length I-E^k on M12 cells (mouse) (UniProt P04224). The test can be described thus: cell coupling (CATS) of transferred 5c.c7 CD4+ T cells with T102S M12 cells, flow cytometry.
For test [3], the target named is MCC 88-103 peptide tethered to full-length I-E^k on M12 cells (mouse) (UniProt P04224). The test is described as follows: cell coupling (CATS) of 5c.c7 CD4+ T cells with MCC M12 cells, Hb M12 as dump, flow cytometry.
The target in test [4] is I-E^k MHCII on tethered pMHC-II expressing M12 cells. The test can be described thus: cell coupling (CATS) of B10.A CD4+ T cells with pre-blocked pMHC+ M12 cells.
Test [5] deals with mouse hemoglobin d allele Hb 64-76 peptide tethered to full-length I-E^k on M12 cells (mouse) (UniProt P04224). The test can be described thus: cell coupling (CATS) of B10.A CD4+ T cells with M12 cells pre-blocked with 20 µg/mL 14-4-4S; competitor: TCRs of B10.A CD4+ T cells.
The target in test [6] is MCC 88-103 peptide tethered to full-length I-E^k on M12 cells (mouse) (UniProt P04224). The test is described as above.
Test [7] concerns the target T102S altered peptide ligand of MCC tethered to full-length I-E^k on M12 cells (mouse) (UniProt P04224). The test is described as above.
Test [8] addresses 5c.c7 TCR on CD4+ T cells from 5c.c7 TCR Rag KO mice (mouse). The test is described as follows: T102S tetramer staining of transferred 5c.c7 CD4+ T cells, flow cytometry.

For the substance “5c.c7 TCR expressed on 58α^-β^- hybridoma cells (α chain fused C-terminally to mEGFP)”, the coupling percentage in test [1] turned out to be 30%.

With “5c.c7 TCR on CD4+ T cells from 5c.c7 TCR Rag KO mice”, the percentage of 5c.c7 CD4+ T cells identified in test [2] is 70%. The substance further had a coupling percentage in test [3] of 60 to 85%.

Consider 14-4-4S anti-I-E^k MHCII antibody, for which the fold lower relative coupling in blocked state in test [4] is 3 to 5 fold. Moreover, the fold decrease in coupling when blocked in test [5] came out at 4 fold; in test [6] it was 4 fold; in test [7], 3 fold.

Take “T102S:I-E^k tetramer (from UniProt P22629 37-163; P04224 26-216) (peptide-MHC)”: in test [8], the percentage of 5c.c7 CD4+ T cells identified worked out at 0%.

The values are drawn from patent US20250231186A1.
